Reference: patent publication US20210095019A1 (I MAB, published 2021)
Where two headings read alike, the source gives them in different places.

B1: CD47 antibody 1F8 (antibody, V domains shown)
VH: KVQLVESGGGLVKPGGSLRLSCAASGFTFSNAWMNWVRQAPGKGLEWVGRIKRKTDGETTDYAAPVKGRFSISRDDSKNTLYLQMNSLKTEDTAVYYCAGSNRAFDIWGQGTMVTVSA
VL: DIVMTQSPDSLAVSLGERATINCKSSQSVLYSSNNRNYLAWYQQKPGQPPKLLINQASTRASGVPDRFSGSGSGTEFTLIISSLHAEDVAIYYCQQYYTPPLAFGGGTKLEIK

How the values were obtained:
[1] = target: primary human AML cells (CD47 on PBMCs of AML patient AML-PB003F) (human) (UniProt Q08722)
[2] = target: human red blood cells (CD47 on RBC) (human) (UniProt Q08722); test: flow cytometry on human RBCs, Donor 2, antibody 10 ug/mL
[3] = target: primary human AML cells (CD47 on PBMCs of AML patient AML-PB003F) (human) (UniProt Q08722); test: flow cytometry on primary AML cells (AML-PB003F); concentration not given
[4] = target: human red blood cells (CD47 on RBC) (human) (UniProt Q08722); test: flow cytometry on human RBCs, Donor 1, antibody 10 ug/mL
[5] = target: Biotinylated CD47 protein (Acrobiosystems) (human) (UniProt Q08722); test: ELISA on coated biotinylated CD47 protein (1 ug/mL), anti-human Fc HRP
[6] = target: human CD47 on Raji cells (human) (UniProt Q08722); test: flow cytometry on Raji cells, APC anti-human Fc
[7] = target: Recombinant human CD47/mouse Fc fusion protein (Acrobiosystems) (human) (UniProt Q08722); test: ELISA on coated CD47/mouse Fc fusion protein (1 ug/ml), anti-human Fc HRP
[8] = target: primary human AML cells (CD47 on PBMCs of AML patient AML-PB003F) (human) (UniProt Q08722); remark: listed apart in the source
[9] = target: human platelets (CD47 on CD61-positive platelets) (human) (UniProt Q08722); test: flow cytometry on human whole blood, gated on CD61+ platelets, antibody 10 ug/mL
[10] = target: Recombinant human CD47-Fc fusion protein (Acrobiosystems) (human) (UniProt Q08722); test: blocking ELISA: SIRPa-His (1 ug/mL) binding to coated CD47-Fc, anti-His HRP
[11] = target: human red blood cells (CD47 on RBC) (human) (UniProt Q08722); test: flow cytometry on human RBCs, APC secondary antibody
[12] = target: T1, Biotinylated CD47 protein (Acrobiosystems) (human, UniProt Q08722 19-139, biotinylated (site not stated)); test: ELISA on coated biotinylated CD47 protein (1 ug/mL), anti-human Fc HRP
T1 construct: extracellular domain; Bought reagent; also called monomeric CD47-ECD; biotinylated human CD47-ECD protein
Experimental: After coating of antigen, the wells were blocked with PBS/0.05% Tween (PBST) with 1% BSA for 1 hour at RT. […] Between all incubation steps, the wells of the plate were washed with PBST three times. Fluorescence was measured in a TECAN Spectrafluor plate reader.

| Molecule | phagocytosis: percent of CFSE+ AML cells among CD14+ macrophages [1] | Binding (percent of RBC in the gate) [2] | AML Binding (percent of cells in the gate) [3] | Binding (percent of RBC in the gate) [4] | EC50 (read off the curve) [5] | EC50 (read off the curve) [6] | EC50 (read off the curve) [7] | phagocytosis: percent of CFSE+ AML cells among CD14+ macrophages [8] | Binding (percent of CD61+ platelets in the gate) [9] | IC50 (read off the curve) [10] | EC50 (read off the curve) [11] | EC50 (read off the curve) [12] |
| --- | --- | --- | --- | --- | --- | --- | --- | --- | --- | --- | --- | --- |
| IgG (antibody) | 27% | 0.018% | 27.6% | 0.079% |  |  |  |  |  |  |  |  |
| Reference antibody 2A1 (produced according to the sequence of CC-90002) |  |  | 75.1% |  | 30 ng/mL | 100 ng/mL | 6 ng/mL | 36.8% | 0.41% | 200 ng/mL | 60 ng/mL |  |
| B1 |  | 0.076% |  | 0.065% |  |  |  |  | 0.77% |  |  | ~8 ng/mL |
